Experimental data: EP4663659A1 (Merck Patent GmbH, dated 2025)

Molecular target: T1, human MUC-1 on cells (human, UniProt P15941 24-1255)
T1 construct: Endogenous on human tumour cell lines and normal kidney and lung cells; also called hMUC-1; mucin 1
Test: flow cytometry with PE-labeled antibody on tumor cell lines, MESF by PE Quantum Beads

T1 sequence (P15941 24-1255 limits assumed): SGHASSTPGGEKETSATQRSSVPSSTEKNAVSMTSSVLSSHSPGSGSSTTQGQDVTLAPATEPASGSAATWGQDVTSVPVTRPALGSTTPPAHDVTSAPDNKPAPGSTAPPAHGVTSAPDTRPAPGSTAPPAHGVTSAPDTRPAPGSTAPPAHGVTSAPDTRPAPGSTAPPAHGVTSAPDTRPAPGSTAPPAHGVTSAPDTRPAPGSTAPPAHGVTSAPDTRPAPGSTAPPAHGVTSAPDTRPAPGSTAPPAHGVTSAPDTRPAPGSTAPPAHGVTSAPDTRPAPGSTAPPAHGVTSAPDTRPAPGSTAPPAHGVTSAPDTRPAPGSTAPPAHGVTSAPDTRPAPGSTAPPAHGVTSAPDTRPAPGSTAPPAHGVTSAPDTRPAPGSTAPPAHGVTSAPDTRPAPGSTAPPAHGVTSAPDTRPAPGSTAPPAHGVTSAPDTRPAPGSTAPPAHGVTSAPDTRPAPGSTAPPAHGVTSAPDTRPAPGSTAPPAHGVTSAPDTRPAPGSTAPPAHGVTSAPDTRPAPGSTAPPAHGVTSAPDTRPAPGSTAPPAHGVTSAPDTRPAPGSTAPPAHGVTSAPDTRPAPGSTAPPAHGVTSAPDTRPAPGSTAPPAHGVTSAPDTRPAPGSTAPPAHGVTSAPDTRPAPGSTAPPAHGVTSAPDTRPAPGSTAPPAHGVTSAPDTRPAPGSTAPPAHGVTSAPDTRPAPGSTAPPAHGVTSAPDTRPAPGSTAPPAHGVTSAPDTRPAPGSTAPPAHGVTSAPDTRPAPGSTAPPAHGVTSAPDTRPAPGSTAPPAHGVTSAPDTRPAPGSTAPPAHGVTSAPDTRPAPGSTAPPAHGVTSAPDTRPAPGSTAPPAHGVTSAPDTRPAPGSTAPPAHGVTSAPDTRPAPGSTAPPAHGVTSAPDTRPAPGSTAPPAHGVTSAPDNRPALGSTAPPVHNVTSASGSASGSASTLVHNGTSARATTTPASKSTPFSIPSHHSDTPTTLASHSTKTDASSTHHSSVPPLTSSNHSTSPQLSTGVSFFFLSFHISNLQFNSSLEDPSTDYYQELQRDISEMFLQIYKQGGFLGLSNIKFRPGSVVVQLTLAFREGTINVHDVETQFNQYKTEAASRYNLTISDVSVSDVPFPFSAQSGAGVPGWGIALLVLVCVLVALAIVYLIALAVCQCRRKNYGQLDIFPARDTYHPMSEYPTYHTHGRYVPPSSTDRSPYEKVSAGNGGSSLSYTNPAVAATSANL

B1: anti-MUC-1 (D11-28) antibody, PE-labeled (antibody, human IgG1, lambda, L234A L235A, V domains shown)
VH: EVQLVQSGAEVKKPGASVKVSCKASGYSFTGHYMHWVRQAPGQGLEWMGWIDPVTGGTKYAQKFQGWVTMTRDTSISTAYMELSRLRSDDTAVYYCAREVTGDRGQFDKWGQGTLVTVSS
VL: SYVLTQPPSVSVAPGKTARITCGGNNIGSKSVHWYQQKPGQAPVLVIYYGSNRPSGIPERFSGSNSGNTATLTISRVEAGDEADYYCQVWDSSSDWVFGGGTKLTVLG
modifications: PE (phycoerythrin) label, site not stated
notes: also called anti-MUC-1 antibody clone (D11-28); anti-MUC-1 PE antibody
- binding result: binds
